# According to publication PMC2928812:
# System: FMDV 3D polymerase wild type (Foot-and-mouth disease virus C-S8c1?)
# Experiment: EMSA
substance,measurement,value
heteropolymeric RNA template-primer of the RNA binding assay,binding signal (% RNA retarded),62
